Data: publication PMC7810697, “Sarcolipin alters SERCA1a interdomain communication by impairing binding of both calcium and ATP” (Scientific Reports, 2021)

Key:
[1] = biological target: T1, DDM-solubilized SR (native SERCA1a) (Oryctolagus cuniculus, UniProt P04191); experiment: Kinetics of phosphorylation from [γ32P]ATP, DDM-solubilized SR; type: biochemical, rabbit; details: calcium-deprived state
T1 construct: DDM-solubilized native SERCA1a purification; from tissue; host or cells: rabbit skeletal muscle sarcoplasmic reticulum
Protocol: (§1) Transient formation of the phosphoenzyme intermediate was measured after incubation with [γ^32P]ATP followed by acid quenching, and filtration. For most experiments, 50 µL of enzyme at 10 µg/mL in a buffer containing 50 mM Tes-Tris pH7.5, 1 mM KCl, 5 mM MgCl2, 20% glycerol (w/w) and 0.5 mg/mL DDM, supplemented or not with SLN, was stored on ice. Concentrations of EGTA and calcium are specified in figure legends in order to reach the appropriate [Ca^2+]free and therefore the desired starting state for the ATPase. For kinetics of phosphorylation, we initiate reaction by addition of 2 µM [γ^32P]ATP (5 mCi/µmole), and calcium at 100 µM when specified. Reaction was quenched by addition of 2 mL of cold quenching medium (500 mM TCA + 30 mM H3P0_4) under vigorous mixing, and immediately stored on ice for 20–30 min to improve precipitation, a period of time critical for retention of the precipitate on the filter in presence of detergent. This was followed by filtration on GS filters (Millipore, Saint Quentin-Fallavier, France) and careful rinsing of the filters with diluted quenching medium (50 mM TCA + 3 mM H3P0_4). The amount of radioactivity bound to the filter was estimated by liquid scintillation counting (Perkin Elmer TriCarb Counter). […]

[2] = biological target: T1, DDM-solubilized SR (native SERCA1a); experiment: Vanadate inhibition of phosphoenzyme formation, DDM-solubilized SR; type: biochemical, rabbit; details: Suppl. Fig. 7
Protocol: as §1

B1: SR: DDM-solubilized native rabbit sarco-endoplasmic reticulum SERCA1a, still containing native SLN (protein)
chain: MEAAHSKSTEECLAYFGVSETTGLTPDQVKRHLEKYGHNELPAEEGKSLWELVIEQFEDLLVRILLLAACISFVLAWFEEGEETITAFVEPFVILLILIANAIVGVWQERNAENAIEALKEYEPEMGKVYRADRKSVQRIKARDIVPGDIVEVAVGDKVPADIRILSIKSTTLRVDQSILTGESVSVIKHTEPVPDPRAVNQDKKNMLFSGTNIAAGKALGIVATTGVSTEIGKIRDQMAATEQDKTPLQQKLDEFGEQLSKVISLICVAVWLINIGHFNDPVHGGSWIRGAIYYFKIAVALAVAAIPEGLPAVITTCLALGTRRMAKKNAIVRSLPSVETLGCTSVICSDKTGTLTTNQMSVCKMFIIDKVDGDFCSLNEFSITGSTYAPEGEVLKNDKPIRSGQFDGLVELATICALCNDSSLDFNETKGVYEKVGEATETALTTLVEKMNVFNTEVRNLSKVERANACNSVIRQLMKKEFTLEFSRDRKSMSVYCSPAKSSRAAVGNKMFVKGAPEGVIDRCNYVRVGTTRVPMTGPVKEKILSVIKEWGTGRDTLRCLALATRDTPPKREEMVLDDSSRFMEYETDLTFVGVVGMLDPPRKEVMGSIQLCRDAGIRVIMITGDNKGTAIAICRRIGIFGENEEVADRAYTGREFDDLPLAEQREACRRACCFARVEPSHKSKIVEYLQSYDEITAMTGDGVNDAPALKKAEIGIAMGSGTAVAKTASEMVLADDNFSTIVAAVEEGRAIYNNMKQFIRYLISSNVGEVVCIFLTAALGLPEALIPVQLLWVNLVTDGLPATALGFNPPDLDIMDRPPRSPKEPLISGWLFFRYMAIGGYVGAATVGAAAWWFMYAEDGPGVTYHQLTHFMQCTEDHPHFEGLDCEIFEAPEPMTMALSVLVTIEMCNALNSLSENQSLMRMPPWVNIWLLGSICLSMSLHFLILYVDPLPMIFKLKALDLTQWLMVLKISLPVIGLDEILKFIARNYLEG
maximum level of phosphorylated intermediate, DDM-solubilized SR ([1]; Suppl. Fig. 5A): 6.39+/-0.20 nmoles EP/mg ATPase
t1/2 of phosphorylation, DDM-solubilized SR ([1]; no SLN added (native SLN present), three replicates from two independent experiments, p<0.0001 vs recS1a alone, p=0.002 vs recS1a+Palm-SLN or recS1a+SLN): 10.4 s⁻¹
EPmax (vanadate series), DDM-solubilized SR [2]: 3.66+/-0.54 nmoles/mg of ATPase
